Legend:
Assay in all cases: Kinase Profiling Assay
Format in all cases: biochemical
Details in all cases: 100 μM
[1] = biological target: LIMK1 (h) (Homo sapiens, UniProt P53667)
Summary of the method: (§1)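 Duplicate wells; [radiolabeled] ATP phosphate onto cationic substrate; filter capture (negatively charged membrane); scintillation count; % of 100% activity control. Selectivity screen of MK2 peptide inhibitors, 266 human kinases.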

[2] = biological target: Met(D1246N) (h) (Homo sapiens, UniProt P08581, D1228N)
Summary of the method: as §1

[3] = biological target: T1, cSRC (h) (Homo sapiens, UniProt P12931)
T1 construct: purchased Millipore
Summary of the method: as §1

[4] = biological target: T2, DRAK1 (h) (Homo sapiens, UniProt Q9UEE5)
T2 construct: purchased Millipore
T2 sequence (Q9UEE5 1-414): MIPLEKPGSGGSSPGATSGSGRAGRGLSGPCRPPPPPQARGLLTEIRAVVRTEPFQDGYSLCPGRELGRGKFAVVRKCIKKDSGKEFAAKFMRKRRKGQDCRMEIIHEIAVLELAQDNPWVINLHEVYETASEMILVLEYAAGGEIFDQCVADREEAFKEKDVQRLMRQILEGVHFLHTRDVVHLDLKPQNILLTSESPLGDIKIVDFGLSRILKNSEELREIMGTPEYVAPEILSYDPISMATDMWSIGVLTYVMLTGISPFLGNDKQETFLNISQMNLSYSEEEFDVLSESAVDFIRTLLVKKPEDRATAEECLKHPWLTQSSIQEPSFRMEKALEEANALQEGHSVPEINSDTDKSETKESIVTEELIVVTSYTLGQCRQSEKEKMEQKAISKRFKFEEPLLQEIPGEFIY
Summary of the method: as §1

[5] = biological target: T3, EphB2 (h) (Homo sapiens, UniProt P29323)
T3 sequence (P29323 19-1055): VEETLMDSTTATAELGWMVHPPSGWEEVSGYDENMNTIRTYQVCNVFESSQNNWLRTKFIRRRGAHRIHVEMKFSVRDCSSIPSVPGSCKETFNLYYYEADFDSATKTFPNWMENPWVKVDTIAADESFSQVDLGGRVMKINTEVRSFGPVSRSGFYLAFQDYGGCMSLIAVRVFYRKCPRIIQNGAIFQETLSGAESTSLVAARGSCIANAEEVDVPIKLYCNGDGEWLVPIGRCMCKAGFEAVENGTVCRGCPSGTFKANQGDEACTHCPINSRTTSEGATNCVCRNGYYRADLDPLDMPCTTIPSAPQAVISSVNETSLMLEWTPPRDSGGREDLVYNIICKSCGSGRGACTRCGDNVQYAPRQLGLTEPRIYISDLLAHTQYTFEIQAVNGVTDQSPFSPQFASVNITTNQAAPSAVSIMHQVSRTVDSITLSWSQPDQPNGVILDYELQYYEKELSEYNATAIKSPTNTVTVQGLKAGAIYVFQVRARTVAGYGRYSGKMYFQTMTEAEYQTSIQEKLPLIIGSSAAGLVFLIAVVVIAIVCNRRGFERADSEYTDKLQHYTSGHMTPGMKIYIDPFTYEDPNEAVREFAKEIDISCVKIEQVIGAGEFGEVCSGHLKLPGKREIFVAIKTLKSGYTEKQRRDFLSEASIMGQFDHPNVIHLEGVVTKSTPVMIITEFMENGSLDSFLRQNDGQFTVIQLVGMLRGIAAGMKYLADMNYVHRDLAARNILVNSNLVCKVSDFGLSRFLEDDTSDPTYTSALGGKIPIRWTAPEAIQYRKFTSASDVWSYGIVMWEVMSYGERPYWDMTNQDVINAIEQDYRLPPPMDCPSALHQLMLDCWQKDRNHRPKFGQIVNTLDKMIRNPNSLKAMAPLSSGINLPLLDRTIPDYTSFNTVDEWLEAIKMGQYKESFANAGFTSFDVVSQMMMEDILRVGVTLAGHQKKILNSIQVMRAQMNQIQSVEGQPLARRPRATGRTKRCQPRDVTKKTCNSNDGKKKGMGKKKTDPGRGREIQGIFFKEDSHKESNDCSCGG
Summary of the method: as §1

[6] = biological target: Lck (h) activated (Homo sapiens, UniProt P06239)
Summary of the method: as §1

[7] = biological target: Plk3 (h) (Homo sapiens, UniProt Q9H4B4)
Summary of the method: as §1

[8] = biological target: T4, MuSK (h) (Homo sapiens, UniProt O15146)
T4 construct: purchased Millipore
T4 sequence (O15146 24-869): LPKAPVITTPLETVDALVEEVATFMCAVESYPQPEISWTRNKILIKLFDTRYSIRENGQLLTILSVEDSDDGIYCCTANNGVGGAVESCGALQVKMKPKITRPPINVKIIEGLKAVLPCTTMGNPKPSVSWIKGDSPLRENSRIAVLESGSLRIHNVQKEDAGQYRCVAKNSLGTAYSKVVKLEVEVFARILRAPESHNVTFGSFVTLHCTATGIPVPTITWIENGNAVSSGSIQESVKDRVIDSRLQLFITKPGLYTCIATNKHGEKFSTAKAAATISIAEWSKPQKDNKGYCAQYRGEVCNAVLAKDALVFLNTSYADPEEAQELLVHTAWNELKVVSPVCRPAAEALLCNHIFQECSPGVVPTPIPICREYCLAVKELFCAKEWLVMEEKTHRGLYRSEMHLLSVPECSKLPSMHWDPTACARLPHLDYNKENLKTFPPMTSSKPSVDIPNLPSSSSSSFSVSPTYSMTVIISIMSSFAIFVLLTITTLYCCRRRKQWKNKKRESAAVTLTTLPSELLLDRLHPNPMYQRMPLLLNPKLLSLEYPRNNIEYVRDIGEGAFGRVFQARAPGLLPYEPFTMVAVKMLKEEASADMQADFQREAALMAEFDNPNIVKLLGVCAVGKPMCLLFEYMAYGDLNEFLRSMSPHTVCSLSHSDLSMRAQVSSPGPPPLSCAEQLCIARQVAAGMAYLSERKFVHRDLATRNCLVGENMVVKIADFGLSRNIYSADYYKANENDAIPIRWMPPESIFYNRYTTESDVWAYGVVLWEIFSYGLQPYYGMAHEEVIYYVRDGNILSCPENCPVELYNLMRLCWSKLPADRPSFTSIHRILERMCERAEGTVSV
Summary of the method: as §1

[9] = biological target: ROCK-II (h) (Homo sapiens, UniProt O75116)
Summary of the method: as §1

ROCK-II (h), sequence (O75116 whole entry): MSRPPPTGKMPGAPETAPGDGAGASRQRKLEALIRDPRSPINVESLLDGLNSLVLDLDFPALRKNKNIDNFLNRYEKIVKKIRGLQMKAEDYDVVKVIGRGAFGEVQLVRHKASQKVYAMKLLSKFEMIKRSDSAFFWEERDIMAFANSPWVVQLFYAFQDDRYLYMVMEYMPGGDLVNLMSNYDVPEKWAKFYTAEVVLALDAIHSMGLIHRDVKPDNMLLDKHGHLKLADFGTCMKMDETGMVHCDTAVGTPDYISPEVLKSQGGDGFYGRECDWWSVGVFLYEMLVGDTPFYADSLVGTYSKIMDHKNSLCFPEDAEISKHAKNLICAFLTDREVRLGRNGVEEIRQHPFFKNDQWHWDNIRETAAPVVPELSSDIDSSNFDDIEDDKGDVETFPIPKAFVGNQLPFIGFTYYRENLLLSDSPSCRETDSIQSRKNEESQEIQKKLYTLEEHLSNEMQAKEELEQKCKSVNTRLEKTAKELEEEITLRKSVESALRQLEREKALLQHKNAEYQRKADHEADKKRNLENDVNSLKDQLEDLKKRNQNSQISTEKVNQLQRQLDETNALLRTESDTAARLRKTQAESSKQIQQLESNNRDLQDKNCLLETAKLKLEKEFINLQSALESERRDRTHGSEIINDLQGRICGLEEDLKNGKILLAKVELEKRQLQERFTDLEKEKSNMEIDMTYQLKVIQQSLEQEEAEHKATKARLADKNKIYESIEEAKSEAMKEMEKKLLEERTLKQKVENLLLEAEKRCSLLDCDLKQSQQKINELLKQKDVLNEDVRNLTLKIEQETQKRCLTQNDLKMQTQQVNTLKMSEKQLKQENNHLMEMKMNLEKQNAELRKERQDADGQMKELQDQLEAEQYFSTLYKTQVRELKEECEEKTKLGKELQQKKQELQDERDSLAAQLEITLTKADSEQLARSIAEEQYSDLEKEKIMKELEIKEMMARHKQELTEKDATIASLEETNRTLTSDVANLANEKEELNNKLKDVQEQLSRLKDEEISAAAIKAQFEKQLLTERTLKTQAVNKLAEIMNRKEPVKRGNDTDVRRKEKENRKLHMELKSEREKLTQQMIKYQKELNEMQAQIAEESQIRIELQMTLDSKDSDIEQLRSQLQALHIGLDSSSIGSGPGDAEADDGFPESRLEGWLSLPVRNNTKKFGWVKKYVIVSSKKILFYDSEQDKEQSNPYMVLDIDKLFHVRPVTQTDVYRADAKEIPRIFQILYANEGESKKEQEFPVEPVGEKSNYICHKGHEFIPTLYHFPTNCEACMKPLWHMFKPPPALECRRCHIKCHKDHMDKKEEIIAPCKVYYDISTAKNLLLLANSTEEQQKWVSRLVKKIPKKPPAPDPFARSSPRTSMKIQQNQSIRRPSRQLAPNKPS
Lck (h) activated, sequence (P06239 whole entry): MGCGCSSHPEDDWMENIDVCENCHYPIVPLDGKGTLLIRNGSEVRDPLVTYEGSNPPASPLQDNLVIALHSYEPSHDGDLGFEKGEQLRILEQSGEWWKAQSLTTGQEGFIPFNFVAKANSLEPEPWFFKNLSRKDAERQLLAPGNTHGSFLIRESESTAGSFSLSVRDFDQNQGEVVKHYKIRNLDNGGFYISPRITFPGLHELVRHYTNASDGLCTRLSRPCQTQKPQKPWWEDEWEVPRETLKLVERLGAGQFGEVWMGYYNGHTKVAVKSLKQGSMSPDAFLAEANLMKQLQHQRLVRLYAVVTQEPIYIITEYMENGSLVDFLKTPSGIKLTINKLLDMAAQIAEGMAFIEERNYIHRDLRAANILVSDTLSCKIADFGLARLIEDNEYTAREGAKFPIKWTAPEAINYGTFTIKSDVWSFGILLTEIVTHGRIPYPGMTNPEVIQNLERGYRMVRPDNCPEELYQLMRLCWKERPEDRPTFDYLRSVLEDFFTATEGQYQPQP
LIMK1 (h), sequence (P53667 whole entry): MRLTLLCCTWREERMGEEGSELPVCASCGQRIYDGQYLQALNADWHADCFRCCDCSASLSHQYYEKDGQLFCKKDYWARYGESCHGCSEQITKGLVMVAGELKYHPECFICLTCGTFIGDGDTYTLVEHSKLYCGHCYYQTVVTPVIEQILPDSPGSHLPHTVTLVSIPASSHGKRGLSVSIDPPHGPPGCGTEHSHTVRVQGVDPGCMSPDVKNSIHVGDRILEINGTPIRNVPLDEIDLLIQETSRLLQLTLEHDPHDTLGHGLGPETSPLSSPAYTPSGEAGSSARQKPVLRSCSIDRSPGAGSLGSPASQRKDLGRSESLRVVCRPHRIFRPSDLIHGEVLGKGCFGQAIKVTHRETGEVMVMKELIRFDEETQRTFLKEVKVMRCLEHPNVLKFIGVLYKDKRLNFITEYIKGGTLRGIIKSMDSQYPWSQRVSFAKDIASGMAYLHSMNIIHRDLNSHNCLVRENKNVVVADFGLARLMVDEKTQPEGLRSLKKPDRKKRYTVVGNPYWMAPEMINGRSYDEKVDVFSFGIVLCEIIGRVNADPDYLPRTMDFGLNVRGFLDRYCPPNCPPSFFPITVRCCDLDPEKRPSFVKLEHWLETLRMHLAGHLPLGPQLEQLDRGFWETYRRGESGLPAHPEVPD
Plk3 (h), sequence (Q9H4B4 whole entry): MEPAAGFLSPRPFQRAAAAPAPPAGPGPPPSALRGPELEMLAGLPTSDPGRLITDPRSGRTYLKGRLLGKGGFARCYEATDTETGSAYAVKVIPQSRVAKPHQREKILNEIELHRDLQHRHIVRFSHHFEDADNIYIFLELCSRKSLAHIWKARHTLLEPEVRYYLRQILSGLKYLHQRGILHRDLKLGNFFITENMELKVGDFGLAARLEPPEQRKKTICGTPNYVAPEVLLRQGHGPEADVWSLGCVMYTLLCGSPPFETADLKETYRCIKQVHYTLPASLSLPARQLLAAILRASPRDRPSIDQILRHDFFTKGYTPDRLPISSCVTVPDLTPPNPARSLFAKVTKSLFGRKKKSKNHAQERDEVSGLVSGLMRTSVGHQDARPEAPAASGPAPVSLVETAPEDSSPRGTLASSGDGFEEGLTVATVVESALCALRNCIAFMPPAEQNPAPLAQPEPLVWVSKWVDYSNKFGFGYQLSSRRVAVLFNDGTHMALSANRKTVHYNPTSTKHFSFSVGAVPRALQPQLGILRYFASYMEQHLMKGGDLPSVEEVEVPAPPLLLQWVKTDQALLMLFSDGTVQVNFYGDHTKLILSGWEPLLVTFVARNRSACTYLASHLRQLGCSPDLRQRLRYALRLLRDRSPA

FAKLAARLYRKALARQLGVAA [MMI-0300]
% activity [1]: 88%
% activity [2]: 82%
% activity [3]: 26%
% activity [4]: 14%
% activity [5]: 18%
% activity [6]: 243%
% activity [7]: 127%
% activity [8]: 93%
% activity [9]: 74%

HRRIKAWLKKIKALARQLGVAA (Mammalian) [MMI-0500]
% activity [1]: 87%
% activity [2]: 90%
% activity [3]: 30%
% activity [4]: 8%
% activity [5]: 70%
% activity [6]: 76%
% activity [7]: 122%
% activity [8]: 27%
% activity [9]: 2%

KAFAKLAARLYRKALARQLGVAA [MMI-0400]
% activity [1]: 92%
% activity [2]: 31%
% activity [3]: 14%
% activity [4]: 14%
% activity [5]: 22%
% activity [6]: 216%
% activity [7]: 129%
% activity [8]: 93%
% activity [9]: 77%

YARAAARQARAKALNRQLGVA (Mammalian) [MMI-0200]
% activity [2]: 149%
% activity [3]: 32%
% activity [4]: 34%
% activity [5]: 128%
% activity [6]: 90%
% activity [9]: 85%
